According to patent US20240083991A1 (Pfizer, published 2024):
Positions count from the first letter of the chain named.

Assays:
human GDF8 = molecular target: T1, human GDF8 (human, UniProt O14793 267-375); test: cell-based or functional assay
T1 sequence (looked up): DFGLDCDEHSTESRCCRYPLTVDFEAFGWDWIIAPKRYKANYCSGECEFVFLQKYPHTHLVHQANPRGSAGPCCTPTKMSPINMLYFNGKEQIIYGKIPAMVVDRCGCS

human mature BMP9 [1] = molecular target: T2, human mature BMP9 (human, UniProt Q9UK05 320-429); test: cell-based or functional assay
T2 sequence: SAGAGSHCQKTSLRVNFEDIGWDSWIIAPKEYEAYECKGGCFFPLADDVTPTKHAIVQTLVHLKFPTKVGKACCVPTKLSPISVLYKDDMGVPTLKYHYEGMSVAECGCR

human mature BMP9 [2] = molecular target: T2, human mature BMP9; test: competition ELISA: antibody mixed with 5 nM BMP9-biotin, binding to coated ActRIIA (5 µg/ml) detected
Description: (§1) For competition ELISAs, each receptor protein was coated on a 384-well ELISA plate at its optimal coating concentration, 20 μl/well in PBS-CMF at 4° C. overnight. The next day, plates were washed 3 times with PBS+0.05% TWEEN™ 20 and blocked with PBS+1% BSA for 1 hr at RT with shaking. Anti-BMP9 Abs were serially diluted 3-fold in PBS+1% BSA, starting from 100 nM, then mixed with the same volume of the optimal concentration of biotinylated BMP9. The final concentration of biotinylated BMP9 corresponded to the EC₉₀ for each receptor, as determined in a preliminary experiment described above.
(§2) Serially diluted Abs were incubated with biotinylated BMP9 for at least 15 min at RT. Plates were washed as before, followed by addition of serially diluted Abs and the biotinylated BMP9 mixture. After incubating for 1 hr at RT, plates were washed 3 times with PBS+0.05% TWEEN™ 20. Secondary antibody was added (HRP-Streptavidin from BioLegend, cat #405210, 1:2000), followed by 1 hr incubation at RT. Plates were washed as before, signal was developed using TMB substrate, and the reaction stopped with 0.18 M H₂SO₄. Absorbance was read at 450 nm on an ENVISION® plate reader (Perkin Elmer).

human mature BMP9 [3] = molecular target: T2, human mature BMP9; test: competition ELISA: antibody mixed with 15 nM BMP9-biotin, binding to coated ActRIIB (5 µg/ml) detected
Description: as §1, §2

human mature BMP9 [4] = molecular target: T2, human mature BMP9; test: competition ELISA: antibody mixed with 1.5 nM BMP9-biotin, binding to coated BMPRII (2 µg/ml) detected
Description: as §1, §2

human mature BMP9 [5] = molecular target: T2, human mature BMP9; test: cell-based or functional assay; remark: listed apart in the source
human mature BMP9 [6] = molecular target: T2, human mature BMP9; test: competition ELISA: antibody mixed with 0.6 nM BMP9-biotin, binding to coated BMPRII (1 µg/ml) detected
Description: as §1, §2

human mature BMP9 [7] = molecular target: T2, human mature BMP9; test: SPR (Biacore T200), 37° C., biotinylated BMP9 captured on Sensor Chip CAP, Fab as analyte, 1:1 model
Description: (§3) The running and sample buffer was 10 mM HEPES pH 7.4, 0.15 M NaCl, 3 mM EDTA, 0.05% P-20 (HBS-EP+). Biotinylated mature human, cyno, and rat BMP9 proteins were reversibly captured onto a Sensor Chip CAP using the Biotin CAPture Reagent (Cytiva, 28920234) according to the manufacturer's instructions. The final capture level of human BMP9 was 100 resonance units (RU), cyno BMP9 was 50 RU, and rat BMP9 was 60 RU. Flow cell 1, without BMP9, was used as a reference flow cell. A two-fold dilution series of the Ab1076 Fab ranging from 100 nM to 6.2 nM was injected for 60 seconds at a flow rate of 100 μl per minute and the dissociation was monitored for 1800 seconds. Rate constants and affinities were determined by fitting the double referenced sensorgram data to a 1:1 model in BIACORE™ Insight Evaluation software version 3.0.1.12.15655 (Cytiva).

cyno BMP9 (mature) = molecular target: T3, cyno BMP9 (mature) (cynomolgus monkey, UniProt G7PEU8 320-429); test: as above
T3 construct: mature; Biotinylated for SPR capture; also called Cyno BMP9-biotin; cynomolgus monkey BMP9
T3 sequence: T2 sequence with A2T, D23N, V84I
Description: as §3

rat BMP9 (mature) = molecular target: T4, rat BMP9 (mature) (rat, UniProt M0RB87 320-430, Chemically biotinylated for capture on the SPR chip; sites not stated. Natural mature BMP9 is a disulfide-linked homodimer; one monomer chain is given.); test: as above
T4 construct: Biotinylated for SPR capture; also called Rat BMP9-biotin
T4 sequence: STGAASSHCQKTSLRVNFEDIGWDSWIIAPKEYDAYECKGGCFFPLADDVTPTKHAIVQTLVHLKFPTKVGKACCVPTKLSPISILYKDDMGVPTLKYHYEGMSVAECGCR
Description: as §3

B1: Ab732 (antibody, human IgG1, lambda, V domains shown)
VH: QVQLVQSGAEVKKPGASVKVSCKASGYTFTSYGISWVRQAPGQGLEWMGWISAYIGNTNYAQKLQGRVTMTTDTSISTAYMELSRLRSDDTAVYYCARAYYMDVWGQGTTVTVSS
VL: NFMLTQPHSVSESPGKTVTISCTGSSGNIASNYVQWYQQRPGSAPTTVIYEDKQRPSGVPDRFSGSIDRSSNSASLTISGLKTEDEADYYCQSYDNHLSVVFGGGTKLTVLG
Human GDF8
  IC50 (read off the curve): GDF8-induced CAGA-luciferase activity, C2C12 reporter cells: ~600 nM

B2: Ab101 (antibody, human IgG1, lambda, V domains shown)
VH: B1 VH with I55N, I76T, S84R, R85S, Y101G
VL: B1 VL with N28S, H97S
notes: Parental clone converted to human IgG1/lambda; The heavy chain can be prepared with or without the C-terminal lysine; also called BMP9-0101
Human mature BMP9 [1]
  IC50 (read off the curve): BMP9-induced pSMAD1/5/9 nuclear translocation, TIME cells: ~80 nM
Human mature BMP9 [2]
  IC50 (read off the curve): ~3 nM
Human mature BMP9 [3]
  IC50 (read off the curve): ~10 nM

B3: Ab89 (antibody, human IgG1, lambda, V domains shown)
VH: QVQLVQSGAEVKKPGASVKVSCKASGYTFTSYYMHWVRQAPGQGLEWMGIINPSGGSTSYAQKFQGRVTMTRDTSTSTVYMELSSLRSEDTAVYYCASRDYYGSGRVYYYYGMDVWGQGTTVTVSS
VL: B1 VL with N28S, K53N, R69S, N96S, H97S, L98I, S99H
notes: Parental anti-BMP9 antibody from a human phage library, human IgG1/lambda; The heavy chain can be prepared with or without the C-terminal lysine
Human mature BMP9 [2]
  IC50 (read off the curve): ~2 nM
Human mature BMP9 [4]
  IC50 (read off the curve): ~4 nM
Human mature BMP9 [3]
  IC50 (read off the curve): ~8 nM

B4: Ab100 (antibody, human IgG1, lambda, V domains shown)
VH: QMQLVQSGAEVKKPGSSVKVSCKASGGTFSSYAISWVRQAPGQGLEWMGGIIPIFGTANYAQKFQGRVTITADESTSTAYMELSSLRSEDTAVYYCARVQLDLSYYYYYGMDVWGQGTTVTVSS
VL: QSALTQPASVSGSPGQSITISCTGTSSDVGSYNLVSWYQQHPGKAPKLMIYEVSKRPSGVSDRFSGSKSANTASLTISGLQAEDEADYYCSSFSINGPSFVFGTGTKVTVLG
notes: Parental anti-BMP9 antibody, human IgG1/lambda; The heavy chain can be prepared with or without the C-terminal lysine
Human mature BMP9 [2]
  IC50 (read off the curve): ~3 nM
Human mature BMP9 [4]
  IC50 (read off the curve): ~4 nM
Human mature BMP9 [3]
  IC50 (read off the curve): ~8 nM

B5: Ab93 (antibody, human IgG1, lambda, V domains shown)
VH: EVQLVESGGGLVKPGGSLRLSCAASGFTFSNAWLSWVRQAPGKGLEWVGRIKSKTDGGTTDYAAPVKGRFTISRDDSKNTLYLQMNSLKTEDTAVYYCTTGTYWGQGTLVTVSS
VL: QSVLTQPPSASGTPGQRVTISCSVTNSDIDIDNVHWYQQLPGMAPKLLFFHDYRPSGVSDRFSGSKSGTSASLAIVGLQSEDEGYYYCAGLDVAMRGPVFGGGTKLTVLG
notes: Parental clone converted to human IgG1/lambda; The heavy chain can be prepared with or without the C-terminal lysine; also called BMP9-0093
Human mature BMP9 [1]
  IC50 (read off the curve): BMP9-induced pSMAD1/5/9 nuclear translocation, TIME cells: ~0.1 nM
Human mature BMP9 [5]
  IC50 (read off the curve): BMP9-induced pSMAD2 nuclear translocation, TIME cells: ~0.08 nM
Human mature BMP9 [2]
  IC50 (read off the curve): ~1 nM
Human mature BMP9 [4]
  IC50 (read off the curve): ~4 nM
Human mature BMP9 [3]
  IC50 (read off the curve): ~7 nM
Human mature BMP9 [6]
  IC50 (read off the curve): ~0.5 nM

B6: Ab1076 Fab (Fab, V domains shown)
VH: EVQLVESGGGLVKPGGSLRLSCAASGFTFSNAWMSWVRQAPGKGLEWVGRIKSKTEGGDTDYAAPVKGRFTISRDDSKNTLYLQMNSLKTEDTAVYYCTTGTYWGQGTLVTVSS
VL: B5 VL with S27T, D32F, M43T, V93E
notes: Monovalent Fab fragment of Ab1076; also called Ab1076 Fab fragment
Human mature BMP9 [7]
  Kd: 0.0874 nM
  koff: 3.84e-05 s⁻¹
  kon: 440000 M⁻¹ s⁻¹
Cyno BMP9 (mature)
  Kd: 0.0658 nM
  koff: 3.84e-05 s⁻¹
  kon: 585000 M⁻¹ s⁻¹
Rat BMP9 (mature)
  Kd: 0.0986 nM
  koff: 5.14e-05 s⁻¹
  kon: 532000 M⁻¹ s⁻¹

B7: Ab352 (antibody, human IgG1, lambda, V domains shown)
VH: EVQLVESGGGLVQPGGSLRLSCAASGFTFSNAWMSWVRQAPGKGLEWVGRIKSKTDSGTTDYAAPVKGRFTISRDNAKNSLYLQMNSLRAEDTAVYYCTTGTYWGQGTLVTVSS
VL: B5 VL with D32F, M43T, V76S, Q79R, G84A, Y85D
notes: Optimized variant of Ab93; The heavy chain can be prepared with or without the C-terminal lysine
Human mature BMP9 [1]
  IC50 (read off the curve): BMP9-induced pSMAD1/5/9 nuclear translocation, TIME cells: ~0.05 nM
Human mature BMP9 [6]
  IC50 (read off the curve): ~0.2 nM

B8: Ab804 (antibody, human IgG1, lambda, V domains shown)
VH: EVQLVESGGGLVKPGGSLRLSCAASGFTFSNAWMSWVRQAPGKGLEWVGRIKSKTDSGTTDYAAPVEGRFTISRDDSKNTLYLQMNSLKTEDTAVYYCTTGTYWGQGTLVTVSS
VL: B5 VL with S27P, D32F, M43T, D52E, V93E
notes: as for B7
Human mature BMP9 [6]
  IC50 (read off the curve): ~0.2 nM
